Data from patent US20210380703A1 (RIGEL PHARMACEUTICALS, published 2021).

Legend:
human ACVR2A = human ACVR2A (human, UniProt P27037 20-135, limits assumed); assay: ELISA
In short: (§1)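 ELISA measured binding of ACVR2A-specific monoclonal antibodies to human and mouse ACVR2A. Biotinylated goat anti-human kappa light chain served as positive control and human Fc as negative control.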

mouse ACVR2A = mouse ACVR2A (mouse, UniProt P27038 20-135, limits assumed); assay: ELISA
In short: as §1

[1] = molecular target: T1, biotinylated goat anti-human kappa light chain; assay: ELISA; positive control
T1 construct: Positive control of the ELISA
In short: as §1
Note: test concentration or dose not given here.

mouse ACVR2A, sequence (P27038 20-135 limits assumed): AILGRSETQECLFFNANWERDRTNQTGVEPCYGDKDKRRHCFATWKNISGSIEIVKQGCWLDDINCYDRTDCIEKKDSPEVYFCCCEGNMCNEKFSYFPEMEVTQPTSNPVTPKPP
human ACVR2A, sequence (P27037 20-135 limits assumed): as the sequence (P27038 20-135 limits assumed) above, with R20K, I73V counted along it

| Binder | optical density (human ACVR2A) [OD] | optical density (mouse ACVR2A) [OD] | optical density [1] [OD] |
| --- | --- | --- | --- |
| 366_B04 (antibody, V domains shown, VH/VL only) VH: EVQLLESGGGLVQPGGSLRLSCAASGFTFDSYSMNWVRQAPGKGLEWVAGINYNGGYKGYADSVKGRFTISRDNSKNTLYLQMNSLRAEDTAVYYCARSATWHDTHLDYWGQGTLVTVSS VL: DIQMTQSPSSLSASVGDRVTITCRASQSILTYVNWYQQKPGKAPKLVIYAATSRHSGVPSRFSGSGSGTDFTLTISSLQPEDFATYYCQQSYDTPLTFGGGTKVEIK | 2.81 | 3.05 | 3.4 |
| 366_D02 (antibody, V domains shown, VH/VL only) VH: EVQLLESGGGLVQPGGSLRLSCAASGFTFSSYSMNWVRQAPGKGLEWVASINYNGGYTSYADSVKGRFTISRDNSKNTLYLQMNSLRAEDTAVYYCARSATWHDTHLDYWGQGTLVTVSS VL: DIQMTQSPSSLSASVGDRVTITCRASQSILSYVNWYQQKPGKAPKLLIYATTSLASGVPSRFSGSGSGTDFTLTISSLQPEDFATYYCQQSYDLPLTFGGGTKVEIK | 2.27 | 2.55 | 3.57 |
| 366_D07 (antibody, V domains shown, VH/VL only) VH: not shown VL: DIQMTQSPSSLSASVGDRVTITCRASQSILTYLNWYQQKPGKAPKLLIYAATSLASGVPSRFSGSGSGTDFTLTISSLQPEDFATYYCQQSYSSPLTFGGGTKVEIK | 2.41 | 2.62 | 3.38 |
| 367_A09 (antibody, V domains shown, VH/VL only) VH: EVQLLESGGGLVQPGGSLRLSCAASGFTFDSYGMNWVRQAPGKGLEWVAGINYNGGYTSYADSVKGRFTISRDNSKNTLYLQMNSLRAEDTAVYYCARSATWHDTHLDYWGQGTLVTVSS VL: DIQMTQSPSSLSASVGDRVTITCRASQSILSYVNWYQQKPGKAPKLVIYAATSRHSGVPSRFSGSGSGTDFTLTISSLQPEDFATYYCQQSYDTPLTFGGGTKVEIK | 2.18 | 2.41 | 3.45 |
| 366_H05 (antibody, V domains shown, VH/VL only) VH: EVQLLESGGGLVQPGGSLRLSCAASGFTFDSYGMHWVRQAPGKGLEWVASINYNGGYTSYADSVKGRFTISRDNSKNTLYLQMNSLRAEDTAVYYCARSATWHDTHLDYWGQGTLVTVSS VL: DIQMTQSPSSLSASVGDRVTITCRASQSILSYVNWYQQKPGKAPKLLIYAATSLASGVPSRFSGSGSGTDFTLTISSLQPEDFATYYCQQSYDLPLTFGGGTKVEIK | 2.44 | 2.74 | 3.47 |
| 367_C03 (antibody, V domains shown, VH/VL only) VH: EVQLLESGGGLVQPGGSLRLSCAASGFTFSSYSMNWVRQAPGKGLEWVANINYNGGYTGYADSVKGRFTISRDNSKNTLYLQMNSLRAEDTAVYYCARSATWHDTALDYWGQGTLVTVSS VL: DIQMTQSPSSLSASVGDRVTITCRASQSILSYVNWYQQKPGKAPKLVIYATTSRASGVPSRFSGSGSGTDFTLTISSLQPEDFATYYCQQSYENPLTFGGGTKVEIK | 2.3 | 2.81 | 3.51 |
| 367_A01 (antibody, V domains shown, VH/VL only) VH: EVQLLESGGGLVQPGGSLRLSCAASGFTFSSYSMNWVRQAPGKGLEWVASINYNGGYTGYADSVKGRFTISRDNSKNTLYLQMNSLRAEDTAVYYCARSATWHDTHLDYWGQGTLVTVSS VL: DIQMTQSPSSLSASVGDRVTITCRASQSILTYLNWYQQKPGKAPKLLIYAATSRASGVPSRFSGSGSGTDFTLTISSLQPEDFATYYCQQSYDLPLTFGGGTKVEIK | 3.18 | 3.28 | 3.51 |
| 366_C02 (antibody, V domains shown, VH/VL only) VH: EVQLLESGGGLVQPGGSLRLSCAASGFTFSDYSMNWVRQAPGKGLEWVANINYNGGYTGYADSVKGRFTISRDNSKNTLYLQMNSLRAEDTAVYYCARSATWHDTHLDYWGQGTLVTVSS VL: DIQMTQSPSSLSASVGDRVTITCRASQSIVSYLNWYQQKPGKAPKLLIYAATSRASGVPSRFSGSGSGTDFTLTISSLQPEDFATYYCQQSYDNPLTFGGGTKVEIK | 3.03 | 3.04 | 3.43 |
| 366_C01 (antibody, V domains shown, VH/VL only) VH: not shown VL: DIQMTQSPSSLSASVGDRVTITCRASQSIVTYLNWYQQKPGKAPKLLIYAATSPASGVPSRFSGSGSGTDFTLTISSLQPEDFATYYCQQSYELPLTFGGGTKVEIK | 2.31 | 2.41 | 3.6 |

Next, values leading:

| optical density (human ACVR2A) [OD] | optical density (mouse ACVR2A) [OD] | optical density [1] [OD] | Binder |
| --- | --- | --- | --- |
| 3.02 | 3.2 | 3.29 | 367_G07 (antibody, V domains shown, VH/VL only) VH: EVQLLESGGGLVQPGGSLRLSCAASGFTFDSYSMNWVRQAPGKGLEWVANINYNGGYTGYADSVKGRFTISRDNSKNTLYLQMNSLRAEDTAVYYCARSATWHDTHLDYWGQGTLVTVSS VL: DIQMTQSPSSLSASVGDRVTITCRASQSILTYVNWYQQKPGKAPKLLIYAATSRASGVPSRFSGSGSGTDFTLTISSLQPEDFATYYCQQSYDNPLTFGGGTKVEIK |
| 2.38 | 2.27 | 3.52 | 367_F02 (antibody, V domains shown, VH/VL only) VH: EVQLLESGGGLVQPGGSLRLSCAASGFTFDSYSMNWVRQAPGKGLEWVANINYNGGYTSYADSVKGRFTISRDNSKNTLYLQMNSLRAEDTAVYYCARSATWHDTHLDYWGQGTLVTVSS VL: DIQMTQSPSSLSASVGDRVTITCRASQSIISYVNWYQQKPGKAPKLLIYAATSRHSGVPSRFSGSGSGTDFTLTISSLQPEDFATYYCQQSYESPLTFGGGTKVEIK |
| 1.69 | 1.7 | 3.52 | 368_F12 (antibody, V domains shown, VH/VL only) VH: EVQLLESGGGLVQPGGSLRLSCAASGFTFDDYSMNWVRQAPGKGLEWVASINYNSGYKSYADSVKGRFTISRDNSKNTLYLQMNSLRAEDTAVYYCARSATWHDTHLDYWGQGTLVTVSS VL: DIQMTQSPSSLSASVGDRVTITCRASQSIVTYLNWYQQKPGKAPKLVIYAATSLASGVPSRFSGSGSGTDFTLTISSLQPEDFATYYCQQSYDLPLTFGGGTKVEIK |
| 2.17 | 2.42 | 3.35 | 368_G05 (antibody, V domains shown, VH/VL only) VH: EVQLLESGGGLVQPGGSLRLSCAASGFTFDSYSMNWVRQAPGKGLEWVAGINYNGGYTSYADSVKGRFTISRDNSKNTLYLQMNSLRAEDTAVYYCARSATWHDTHLDYWGQGTLVTVSS VL: DIQMTQSPSSLSASVGDRVTITCRASQSILTYVNWYQQKPGKAPKLLIYAATSLHSGVPSRFSGSGSGTDFTLTISSLQPEDFATYYCQQSYNTPLTFGGGTKVEIK |
| 2.72 | 2.68 | 3.46 | 367_H07 (antibody, V domains shown, VH/VL only) VH: EVQLLESGGGLVQPGGSLRLSCAASGFTFSSYSMNWVRQAPGKGLEWVANINYNGGYTGYADSVKGRFTISRDNSKNTLYLQMNSLRAEDTAVYYCARSATWHDTALDYWGQGTLVTVSS VL: DIQMTQSPSSLSASVGDRVTITCRASQSILSYVNWYQQKPGKAPKLVIYATTSRASGVPSRFSGSGSGTDFTLTISSLQPEDFATYYCQQSYENPLTFGGGTKVEIK |
| 1.87 | 2.03 | 3.44 | 367_E02 (antibody, V domains shown, VH/VL only) VH: EVQLLESGGGLVQPGGSLRLSCAASGFTFDSYSMNWVRQAPGKGLEWVAGINYNGGYTGYADSVKGRFTISRDNSKNTLYLQMNSLRAEDTAVYYCARSATWHDTHLDYWGQGTLVTVSS VL: not shown |
| 2.57 | 2.92 | 3.73 | 368_E11 (antibody, V domains shown, VH/VL only) VH: EVQLLESGGGLVQPGGSLRLSCAASGFTFDSYGMHWVRQAPGKGLEWVANINYNGGYTSYADSVKGRFTISRDNSKNTLYLQMNSLRAEDTAVYYCARSATWHDTHLDYWGQGTLVTVSS VL: DIQMTQSPSSLSASVGDRVTITCRASQSIISYVNWYQQKPGKAPKLLIYAATSRHSGVPSRFSGSGSGTDFTLTISSLQPEDFATYYCQQSYELPLTFGGGTKVEIK |
| 0.738 | 1.03 | 3.52 | 368_C06 (antibody, V domains shown, VH/VL only) VH: EVQLLESGGGLVQPGGSLRLSCAASGFTFDSYSMNWVRQAPGKGLEWVAGINYNGGYKSYADSVKGRFTISRDNSKNTLYLQMNSLRAEDTAVYYCARSATWHDTHLDYWGQGTLVTVSS VL: not shown |
| 2.27 | 2.48 | 3.44 | 367_F05 (antibody, V domains shown, VH/VL only) VH: EVQLLESGGGLVQPGGSLRLSCAASGFTFSSYGMNWVRQAPGKGLEWVASINYNGGYTGYADSVKGRFTISRDNSKNTLYLQMNSLRAEDTAVYYCARSATWHDTALDYWGQGTLVTVSS VL: DIQMTQSPSSLSASVGDRVTITCRASQSILSYVNWYQQKPGKAPKLLIYAATSRASGVPSRFSGSGSGTDFTLTISSLQPEDFATYYCQQSYSSPLTFGGGTKVEIK |
| 2.61 | 2.92 | 3.71 | 368_C01 (antibody, V domains shown, VH/VL only) VH: EVQLLESGGGLVQPGGSLRLSCAASGFTFDSYGMNWVRQAPGKGLEWVAGINYNGGYTGYADSVKGRFTISRDNSKNTLYLQMNSLRAEDTAVYYCARSATWHDTALDYWGQGTLVTVSS VL: DIQMTQSPSSLSASVGDRVTITCRASQSIITYLNWYQQKPGKAPKLLIYAATSRASGVPSRFSGSGSGTDFTLTISSLQPEDFATYYCQQSYDSPLTFGGGTKVEIK |
| 2.25 | 2.45 | 3.26 | 368_D10 (antibody, V domains shown, VH/VL only) VH: EVQLLESGGGLVQPGGSLRLSCAASGFTFDSYGMNWVRQAPGKGLEWVAGINYNSGYTSYADSVKGRFTISRDNSKNTLYLQMNSLRAEDTAVYYCARSATWHDTALDYWGQGTLVTVSS VL: DIQMTQSPSSLSASVGDRVTITCRASQSILSYLNWYQQKPGKAPKLVIYAATSRASGVPSRFSGSGSGTDFTLTISSLQPEDFATYYCQQSYDSPLTFGGGTKVEIK |
